Measured values published in PMC11002876, “KcsA-Kv1.x chimeras with complete ligand-binding sites provide improved predictivity for screening selective Kv1.x blockers” (The Journal of Biological Chemistry, 2024).

Tests used:
[1] = molecular target: KcsA-Kv1.2 turret-only chimera (Streptomyces lividans | human); test: native gel or EMSA
[2] = molecular target: human Kv1.3 voltage-gated potassium channel on activated human lymphocytes (human (endogenous in peripheral blood mononuclear cells)) (UniProt P22001)
Sequence of human Kv1.3 voltage-gated potassium channel on activated human lymphocytes (human (endogenous in peripheral blood mononuclear cells)) (P22001 whole entry): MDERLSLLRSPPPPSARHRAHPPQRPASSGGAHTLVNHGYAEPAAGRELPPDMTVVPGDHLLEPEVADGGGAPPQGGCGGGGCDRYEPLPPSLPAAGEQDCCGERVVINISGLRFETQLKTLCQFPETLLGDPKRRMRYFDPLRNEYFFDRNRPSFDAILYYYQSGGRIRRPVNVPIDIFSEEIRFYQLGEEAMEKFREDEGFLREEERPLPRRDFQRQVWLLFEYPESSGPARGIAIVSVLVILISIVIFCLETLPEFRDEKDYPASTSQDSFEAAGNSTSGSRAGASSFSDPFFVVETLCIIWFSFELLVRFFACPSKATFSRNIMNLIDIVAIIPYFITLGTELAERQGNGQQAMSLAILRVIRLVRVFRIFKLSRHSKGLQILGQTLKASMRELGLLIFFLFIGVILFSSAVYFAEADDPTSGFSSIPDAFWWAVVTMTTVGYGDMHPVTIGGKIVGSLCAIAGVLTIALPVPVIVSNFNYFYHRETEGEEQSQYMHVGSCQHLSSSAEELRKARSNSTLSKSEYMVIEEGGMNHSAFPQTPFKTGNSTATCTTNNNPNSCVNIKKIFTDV

[3] = molecular target: human Kv1.3 voltage-gated potassium channel on activated human lymphocytes (human (endogenous in peripheral blood mononuclear cells)) (UniProt P22001); remark: listed apart in the source
[4] = molecular target: KcsA-Kv1.2 turret-filter chimera (Streptomyces lividans | human); test: native gel or EMSA
[5] = molecular target: KcsA-Kv1.3 turret-filter chimera (Streptomyces lividans | human); test: native gel or EMSA
[6] = molecular target: KcsA-Kv1.3 turret-filter chimera (Streptomyces lividans | human); test: SDS-PAGE and western blot; purified proteins, 0.5 ug/well, Tris-Glycine gradient gel, 200 V 55 min; western blot with anti-His antibody; monomers and tetramers by migration
[7] = molecular target: KcsA-Kv1.3 turret-only chimera (Streptomyces lividans | human); test: ELISA
[8] = molecular target: KcsA-Kv1.3 turret-filter chimera (Streptomyces lividans | human); test: ELISA
[9] = molecular target: KcsA-Kv1.1 turret-filter chimera (Streptomyces lividans | human); test: native gel or EMSA
[10] = molecular target: KcsA-Kv1.1 turret-filter chimera (Streptomyces lividans | human); test: SDS-PAGE and western blot; purified proteins, 0.5 ug/well, Tris-Glycine gradient gel, 200 V 55 min; western blot with anti-His antibody; monomers and tetramers by migration
[11] = test system: human Kv1.3 channel (hKv1.3); test: Whole-cell patch-clamp of phage-displayed toxins, hKv1.3 in human lymphocytes; assay type: cell-based; settings: perfusion concentration; phage-displayed toxin; experimentally titrated; N = 3
Procedure: Human Kv1.3 currents were recorded from activated peripheral blood mononuclear cells (see below) 3 to 4 days after activation. Heparinized human peripheral venous blood was obtained from healthy volunteers. Mononuclear cells were separated through Histopaque-1077 density gradient centrifugation. Collected cells were washed twice with Ca^2+- and Mg^2+-free Hanks’ solution containing 25 mM Hepes buffer, pH 7.4. Cells were cultured for 3 to 4 days in 24-well culture plates in a 5% CO2 incubator at 37 °C, in RPMI 1640 medium supplemented with 10% fetal calf serum (Sigma-Aldrich), 100 μg/ml penicillin, 100 μg/ml streptomycin, and 2 mM L-glutamine (density, 0.5 × 10^6 cells per ml). Phytohemagglutinin A (Sigma-Aldrich) was added to the medium at 10 μg/ml to amplify the Kv1.3 expression. Cells were washed gently twice with 2 ml of ECS for the patch-clamp experiments.
Conventional whole-cell patch-clamp electrophysiology was used to record ionic currents. Micropipettes were pulled from GC150F-7.5 borosilicate capillaries (Harvard Apparatus) with tip diameters between 0.5 and 1 μm resulting in a tip resistance of 2 to 8 MΩ in the extracellular (bath) solution. All measurements were carried out by using Axopatch 200B amplifier connected to a personal computer using Axon Digidata 1550A data acquisition hardware and Pclamp10.7 software (https://support.moleculardevices.com/s/article/Axon-pCLAMP-10-Electrophysiology-Data-Acquisition-Analysis-Software-Download-Page). The holding potential was −120 mV. Records were discarded when leak at the holding potential was >10% of peak current at the test potential. Experiments were performed at room temperature (20–24 °C). Before analysis, whole-cell current traces were corrected for ohmic leakage and digitally filtered with a three-point boxcar smoothing filter.
Solutions: all salts and components of the solutions were purchased from Sigma Aldrich. The extracellular (bath) solution (ECS) contained 145 mM NaCl, 5 mM KCl, 2.5 mM CaCl2, 1 mM MgCl2, 10 mM Hepes, and 5.5 mM glucose (pH 7.35 with NaOH), while the intracellular (pipette) solution (ICS) contained 140 mM KF, 2 mM MgCl2, 1 mM CaCl2, 11 mM EGTA, and 10 mM Hepes (pH 7.22 with KOH). The osmolarity of the ECS and ICS were 302 mOsM.
Native peptides, phage-expressed peptides, and positive controls used for them were dissolved in ECS supplemented with 0.1 mg/ml bovine serum albumin (BSA; Sigma-Aldrich Hungary). Bath perfusion around the measured cell with different extracellular solutions was achieved using a gravity flow micro perfusion system using a rate of 0.5 ml/min. Excess fluid was removed continuously.
Voltage protocols: For measurement of Kv1.1 to 1.3 currents, voltage steps to +50 mV were applied from a holding potential of −120 mV and the peak current was measured every 15 s. For Kv1.3 currents, 15-ms-long depolarizing pulses were applied. For Kv1.1, 50-ms-long–activating stimuli were used. Kv1.2 currents were evoked by 200-ms-long pulses. […] The remaining current fraction at a given molar concentration was calculated as I/I0, where I0 is the peak current in the absence and I is the peak current at equilibrium block or […] after ∼2 min perfusion by the investigated peptide/phage.
Phage display test solutions were prepared according to routine phage display protocols ([62]). Phosphorylated and annealed oligonucleotides encoding the peptide construct were ligated into linearized pAS62 phagemid vector (https://patents.google.com/patent/WO2022144560A1/en) at a vector/insert ratio of 1:3. The final phagemid construct harbored a signal sequence followed by the peptide of interest, a linker sequence ([…]), and the C-terminal part of the P3 coat protein (amino acids: 216-424 of NP_510891.1). Chemically competent XL1-Blue E. coli cells (2022249, Agilent) were transformed with the ligation product and then streaked onto ampicillin (100 μg/ml) containing LB/Amp plates and incubated for 16 h at 37 °C.

[12] = molecular target: KcsA-Kv1.1 turret-filter chimera (Streptomyces lividans | human); test: ELISA
[13] = molecular target: KcsA-Kv1.1 turret-only chimera (Streptomyces lividans | human); test: ELISA
[14] = molecular target: KcsA-Kv1.2 turret-filter chimera (Streptomyces lividans | human); test: ELISA
[15] = molecular target: KcsA-Kv1.2 turret-only chimera (Streptomyces lividans | human); test: ELISA
[16] = molecular target: KcsA-Kv1.1 turret-only chimera (Streptomyces lividans | human); test: native gel or EMSA
[17] = molecular target: KcsA-Kv1.1 turret-only chimera (Streptomyces lividans | human); test: SDS-PAGE and western blot; purified proteins, 0.5 ug/well, Tris-Glycine gradient gel, 200 V 55 min; western blot with anti-His antibody; monomers and tetramers by migration
[18] = molecular target: KcsA-Kv1.3 turret-only chimera (Streptomyces lividans | human); test: native gel or EMSA
[19] = molecular target: KcsA-Kv1.3 turret-only chimera (Streptomyces lividans | human); test: SDS-PAGE and western blot; purified proteins, 0.5 ug/well, Tris-Glycine gradient gel, 200 V 55 min; western blot with anti-His antibody; monomers and tetramers by migration

With KcsA-Kv1.2 turret-only chimera the stoichiometry N [1] was 4.

In the case of “Vm24 toxin displayed on M13 phage as a fusion to the P3 coat protein (peptide)”, the phage concentration that gave a similar (50-70%) inhibition of the hKv1.3 current, whole-cell patch-clamp on human lymphocytes [2] is reported as 6e+10 particle/ml and the estimated relative potency calculated from the phage concentration required to reach 50% blocking effect on the Kv1.3 current (relative potency) [3] is reported as 1.

For KcsA-Kv1.2 turret-filter chimera, the stoichiometry N [4] was 4.

KcsA-Kv1.3 turret-filter chimera gave a stoichiometry N [5] of 4 and a stoichiometry N [6] of 4.

Vm24 toxin, synthetic peptide showed an IC50 [7] of 0.577 nM and an IC50 [8] of 0.036 nM.

KcsA-Kv1.1 turret-filter chimera gave a stoichiometry N [9] of 4 and a stoichiometry N [10] of 4.

In the case of “Hongotoxin-1, synthetic peptide (from UniProt P59847 1-39)”, the IC50 [7] is reported as 0.671 nM and the IC50 [8] is reported as 0.108 nM.

“KTX1-phage: KTX1 fused to the P3 coat protein of M13 phage with an eight amino acid linker (GVEINVKCSGSPQCLKPCKDAGMRFGKCMNRKCHCTPK; not fully specified; left off: M13 P3 coat protein C-terminal part (amino acids 216-424 of NP_510891.1) behind the linker GSASSATR, C-terminal, kept)” was tested, and the “phage concentration giving approximate 50% block of hKv1.3 current” value [11] was ~3.6 × 10^13 particle/ml.

Work on “Kaliotoxin-1, synthetic peptide (from UniProt P24662 1-38)” yielded an IC50 [12] of 1.49 nM, an IC50 [13] of 1.27 nM and an IC50 [14] of 205 nM. For the same molecule, the IC50 [15] was 0.185 nM, the IC50 [7] was 0.416 nM and the IC50 [8] was 98.2 nM.

KcsA-Kv1.1 turret-only chimera was tested, and the stoichiometry N [16] was 4 and the stoichiometry N [17] was 4.

KcsA-Kv1.3 turret-only chimera gave a stoichiometry N [18] of 4 and a stoichiometry N [19] of 4.

“Stichodactyla toxin ShK, synthetic peptide” was tested, and the IC50 [12] was 0.271 nM, the IC50 [13] was 0.317 nM and the IC50 [14] was 15.9 nM. It also gave an IC50 [15] of 0.07 nM.

Molecule VSCTGSKDCYAPCRKQTGCPNAKCINKSCKCYGC [Maurotoxin, synthetic peptide] has an IC50 [12] greater than 1000 nM, an IC50 [13] greater than 1000 nM and an IC50 [14] of 0.129 nM. It also gave an IC50 [15] greater than 1000 nM.
